Reference: US20260049138A1 (Chugai, published 2026)

molecular target: T1, CD3ε homodimer protein (human, UniProt P07766 23-126, limits assumed); assay: SPR Biacore T200, CD3ε homodimer on chip;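 further: Light-chain single-residue variant antibodies injected over amine-coupled CD3ε homodimer on a CM4 chip at 25 °C, bound amount divided by that of the GLS3000-containing antibody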
T1 construct: also called CD3 (CD3ε)
T1 sequence (P07766 23-126 limits assumed): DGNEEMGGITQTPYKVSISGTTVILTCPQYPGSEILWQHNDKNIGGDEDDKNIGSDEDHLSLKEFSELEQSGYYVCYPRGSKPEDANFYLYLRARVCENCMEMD

| ratio of amount bound vs unaltered GLS3000 | Binder |
| --- | --- |
| 0.42 | GLS3000 T92L one-arm antibody (antibody, human IgG1, kappa, L234A L235A, N297A, name in Kabat numbering) heavy: QVQLVESGGGVVQPGRSLRLSCAASGFTFSNAWMHWVRQAPGKGLEWVAQIKAKSNNYATYYAESVKGRFTISRDDSKNSLYLQMNSLKTEDTAVYYCRYVHYGAYYGVDAWGQGTTVTVSSASTKGPSVFPLAPSSKSTSGGTAALGCLVKDYFPEPVTVSWNSGALTSGVHTFPAVLQSSGLYSLSSVVTVPSSSLGTQTYICNVNHKPSNTKVDKKVEPKSCDKTHTCPPCPAPEAAGGPSVFLFPPKPKDTLMISRTPEVTCVVVDVSHEDPEVKFNWYVDGVEVHNAKTKPREEQYASTYRVVSVLTVLHQDWLNGKEYKCKVSNKALPAPIEKTISKAKGQPREPQVYTLPPSRCELTKNQVSLSCAVKGFYPSDIAVEWESNGQPENNYKTTPPVLDSDGSFFLVSKLTVDKSRWQQGNVFSCSVMHEALHNHYTQKSLSLSPDYKDDDDK EPKSSDKTHTCPPCPAPELLGGPSVFLFPPKPKDTLMISRTPEVTCVVVDVSHEDPEVKFNWYVDGVEVHNAKTKPREEQYNSTYRVVSVLTVLHQDWLNGKEYKCKVSNKALPAPIEKTISKAKGQPREPQVCTLPPSRDELTKNQVSLWCLVKGFYPSDIAVEWESNGQPENNYKTTPPVLDSDGSFFLYSKLTVDKSRWQQGNVFSCSVMHEALHNRYTQKSLSLSP light: DIVMTQSPLSLPVTPGEPASISCRSSQSLVHSNRNTYLHWYQQKPGQAPRLLIYKVSNRFSGVPDRFSGSGSGTDFTLKISRVEAEDVGVYYCGQGLQVPYTFGQGTKLEIKRTVAAPSVFIFPPSDEQLKSGTASVVCLLNNFYPREAKVQWKVDNALQSGNSQESVTEQDSKDSTYSLSSTLTLSKADYEKHKVYACEVTHQGLSSPVTKSFNRGEC |
| 0.31 | GLS3000 T97P one-arm antibody (antibody, human IgG1, kappa, L234A L235A, N297A, name in Kabat numbering) heavy: QVQLVESGGGVVQPGRSLRLSCAASGFTFSNAWMHWVRQAPGKGLEWVAQIKAKSNNYATYYAESVKGRFTISRDDSKNSLYLQMNSLKTEDTAVYYCRYVHYGAYYGVDAWGQGTTVTVSSASTKGPSVFPLAPSSKSTSGGTAALGCLVKDYFPEPVTVSWNSGALTSGVHTFPAVLQSSGLYSLSSVVTVPSSSLGTQTYICNVNHKPSNTKVDKKVEPKSCDKTHTCPPCPAPEAAGGPSVFLFPPKPKDTLMISRTPEVTCVVVDVSHEDPEVKFNWYVDGVEVHNAKTKPREEQYASTYRVVSVLTVLHQDWLNGKEYKCKVSNKALPAPIEKTISKAKGQPREPQVYTLPPSRCELTKNQVSLSCAVKGFYPSDIAVEWESNGQPENNYKTTPPVLDSDGSFFLVSKLTVDKSRWQQGNVFSCSVMHEALHNHYTQKSLSLSPDYKDDDDK EPKSSDKTHTCPPCPAPELLGGPSVFLFPPKPKDTLMISRTPEVTCVVVDVSHEDPEVKFNWYVDGVEVHNAKTKPREEQYNSTYRVVSVLTVLHQDWLNGKEYKCKVSNKALPAPIEKTISKAKGQPREPQVCTLPPSRDELTKNQVSLWCLVKGFYPSDIAVEWESNGQPENNYKTTPPVLDSDGSFFLYSKLTVDKSRWQQGNVFSCSVMHEALHNRYTQKSLSLSP light: DIVMTQSPLSLPVTPGEPASISCRSSQSLVHSNRNTYLHWYQQKPGQAPRLLIYKVSNRFSGVPDRFSGSGSGTDFTLKISRVEAEDVGVYYCGQGTQVPYPFGQGTKLEIKRTVAAPSVFIFPPSDEQLKSGTASVVCLLNNFYPREAKVQWKVDNALQSGNSQESVTEQDSKDSTYSLSSTLTLSKADYEKHKVYACEVTHQGLSSPVTKSFNRGEC |
| 0.33 | GLS3000 T92Y one-arm antibody (antibody, human IgG1, kappa, L234A L235A, N297A, name in Kabat numbering) heavy: QVQLVESGGGVVQPGRSLRLSCAASGFTFSNAWMHWVRQAPGKGLEWVAQIKAKSNNYATYYAESVKGRFTISRDDSKNSLYLQMNSLKTEDTAVYYCRYVHYGAYYGVDAWGQGTTVTVSSASTKGPSVFPLAPSSKSTSGGTAALGCLVKDYFPEPVTVSWNSGALTSGVHTFPAVLQSSGLYSLSSVVTVPSSSLGTQTYICNVNHKPSNTKVDKKVEPKSCDKTHTCPPCPAPEAAGGPSVFLFPPKPKDTLMISRTPEVTCVVVDVSHEDPEVKFNWYVDGVEVHNAKTKPREEQYASTYRVVSVLTVLHQDWLNGKEYKCKVSNKALPAPIEKTISKAKGQPREPQVYTLPPSRCELTKNQVSLSCAVKGFYPSDIAVEWESNGQPENNYKTTPPVLDSDGSFFLVSKLTVDKSRWQQGNVFSCSVMHEALHNHYTQKSLSLSPDYKDDDDK EPKSSDKTHTCPPCPAPELLGGPSVFLFPPKPKDTLMISRTPEVTCVVVDVSHEDPEVKFNWYVDGVEVHNAKTKPREEQYNSTYRVVSVLTVLHQDWLNGKEYKCKVSNKALPAPIEKTISKAKGQPREPQVCTLPPSRDELTKNQVSLWCLVKGFYPSDIAVEWESNGQPENNYKTTPPVLDSDGSFFLYSKLTVDKSRWQQGNVFSCSVMHEALHNRYTQKSLSLSP light: DIVMTQSPLSLPVTPGEPASISCRSSQSLVHSNRNTYLHWYQQKPGQAPRLLIYKVSNRFSGVPDRFSGSGSGTDFTLKISRVEAEDVGVYYCGQGYQVPYTFGQGTKLEIKRTVAAPSVFIFPPSDEQLKSGTASVVCLLNNFYPREAKVQWKVDNALQSGNSQESVTEQDSKDSTYSLSSTLTLSKADYEKHKVYACEVTHQGLSSPVTKSFNRGEC |
| 0.26 | GLS3000 T92P one-arm antibody (antibody, human IgG1, kappa, L234A L235A, N297A, name in Kabat numbering) heavy: QVQLVESGGGVVQPGRSLRLSCAASGFTFSNAWMHWVRQAPGKGLEWVAQIKAKSNNYATYYAESVKGRFTISRDDSKNSLYLQMNSLKTEDTAVYYCRYVHYGAYYGVDAWGQGTTVTVSSASTKGPSVFPLAPSSKSTSGGTAALGCLVKDYFPEPVTVSWNSGALTSGVHTFPAVLQSSGLYSLSSVVTVPSSSLGTQTYICNVNHKPSNTKVDKKVEPKSCDKTHTCPPCPAPEAAGGPSVFLFPPKPKDTLMISRTPEVTCVVVDVSHEDPEVKFNWYVDGVEVHNAKTKPREEQYASTYRVVSVLTVLHQDWLNGKEYKCKVSNKALPAPIEKTISKAKGQPREPQVYTLPPSRCELTKNQVSLSCAVKGFYPSDIAVEWESNGQPENNYKTTPPVLDSDGSFFLVSKLTVDKSRWQQGNVFSCSVMHEALHNHYTQKSLSLSPDYKDDDDK EPKSSDKTHTCPPCPAPELLGGPSVFLFPPKPKDTLMISRTPEVTCVVVDVSHEDPEVKFNWYVDGVEVHNAKTKPREEQYNSTYRVVSVLTVLHQDWLNGKEYKCKVSNKALPAPIEKTISKAKGQPREPQVCTLPPSRDELTKNQVSLWCLVKGFYPSDIAVEWESNGQPENNYKTTPPVLDSDGSFFLYSKLTVDKSRWQQGNVFSCSVMHEALHNRYTQKSLSLSP light: DIVMTQSPLSLPVTPGEPASISCRSSQSLVHSNRNTYLHWYQQKPGQAPRLLIYKVSNRFSGVPDRFSGSGSGTDFTLKISRVEAEDVGVYYCGQGPQVPYTFGQGTKLEIKRTVAAPSVFIFPPSDEQLKSGTASVVCLLNNFYPREAKVQWKVDNALQSGNSQESVTEQDSKDSTYSLSSTLTLSKADYEKHKVYACEVTHQGLSSPVTKSFNRGEC |
| 0.96 | GLS3000 T92S one-arm antibody (antibody, human IgG1, kappa, L234A L235A, N297A, name in Kabat numbering) heavy: QVQLVESGGGVVQPGRSLRLSCAASGFTFSNAWMHWVRQAPGKGLEWVAQIKAKSNNYATYYAESVKGRFTISRDDSKNSLYLQMNSLKTEDTAVYYCRYVHYGAYYGVDAWGQGTTVTVSSASTKGPSVFPLAPSSKSTSGGTAALGCLVKDYFPEPVTVSWNSGALTSGVHTFPAVLQSSGLYSLSSVVTVPSSSLGTQTYICNVNHKPSNTKVDKKVEPKSCDKTHTCPPCPAPEAAGGPSVFLFPPKPKDTLMISRTPEVTCVVVDVSHEDPEVKFNWYVDGVEVHNAKTKPREEQYASTYRVVSVLTVLHQDWLNGKEYKCKVSNKALPAPIEKTISKAKGQPREPQVYTLPPSRCELTKNQVSLSCAVKGFYPSDIAVEWESNGQPENNYKTTPPVLDSDGSFFLVSKLTVDKSRWQQGNVFSCSVMHEALHNHYTQKSLSLSPDYKDDDDK EPKSSDKTHTCPPCPAPELLGGPSVFLFPPKPKDTLMISRTPEVTCVVVDVSHEDPEVKFNWYVDGVEVHNAKTKPREEQYNSTYRVVSVLTVLHQDWLNGKEYKCKVSNKALPAPIEKTISKAKGQPREPQVCTLPPSRDELTKNQVSLWCLVKGFYPSDIAVEWESNGQPENNYKTTPPVLDSDGSFFLYSKLTVDKSRWQQGNVFSCSVMHEALHNRYTQKSLSLSP light: DIVMTQSPLSLPVTPGEPASISCRSSQSLVHSNRNTYLHWYQQKPGQAPRLLIYKVSNRFSGVPDRFSGSGSGTDFTLKISRVEAEDVGVYYCGQGSQVPYTFGQGTKLEIKRTVAAPSVFIFPPSDEQLKSGTASVVCLLNNFYPREAKVQWKVDNALQSGNSQESVTEQDSKDSTYSLSSTLTLSKADYEKHKVYACEVTHQGLSSPVTKSFNRGEC |
| 0.32 | GLS3000 V27cD one-arm antibody (antibody, human IgG1, kappa, L234A L235A, N297A, name in Kabat numbering) heavy: QVQLVESGGGVVQPGRSLRLSCAASGFTFSNAWMHWVRQAPGKGLEWVAQIKAKSNNYATYYAESVKGRFTISRDDSKNSLYLQMNSLKTEDTAVYYCRYVHYGAYYGVDAWGQGTTVTVSSASTKGPSVFPLAPSSKSTSGGTAALGCLVKDYFPEPVTVSWNSGALTSGVHTFPAVLQSSGLYSLSSVVTVPSSSLGTQTYICNVNHKPSNTKVDKKVEPKSCDKTHTCPPCPAPEAAGGPSVFLFPPKPKDTLMISRTPEVTCVVVDVSHEDPEVKFNWYVDGVEVHNAKTKPREEQYASTYRVVSVLTVLHQDWLNGKEYKCKVSNKALPAPIEKTISKAKGQPREPQVYTLPPSRCELTKNQVSLSCAVKGFYPSDIAVEWESNGQPENNYKTTPPVLDSDGSFFLVSKLTVDKSRWQQGNVFSCSVMHEALHNHYTQKSLSLSPDYKDDDDK EPKSSDKTHTCPPCPAPELLGGPSVFLFPPKPKDTLMISRTPEVTCVVVDVSHEDPEVKFNWYVDGVEVHNAKTKPREEQYNSTYRVVSVLTVLHQDWLNGKEYKCKVSNKALPAPIEKTISKAKGQPREPQVCTLPPSRDELTKNQVSLWCLVKGFYPSDIAVEWESNGQPENNYKTTPPVLDSDGSFFLYSKLTVDKSRWQQGNVFSCSVMHEALHNRYTQKSLSLSP light: DIVMTQSPLSLPVTPGEPASISCRSSQSLDHSNRNTYLHWYQQKPGQAPRLLIYKVSNRFSGVPDRFSGSGSGTDFTLKISRVEAEDVGVYYCGQGTQVPYTFGQGTKLEIKRTVAAPSVFIFPPSDEQLKSGTASVVCLLNNFYPREAKVQWKVDNALQSGNSQESVTEQDSKDSTYSLSSTLTLSKADYEKHKVYACEVTHQGLSSPVTKSFNRGEC |
